According to paper PMC11969024 (2025):

B1: peptide HD2 (from tick evasin EVA4) / CCL18 (biotinylated, synthetic) (parent complex)
chain 1: EEDDYTAYAPLTCYFT
chain 2: AQVGTNKELCCLVYTSWQIPQKFIVDYSETSPQCPKPGVILLTKRGRQICADPNKKWVQKYISDLKLNA
B2: peptide HD2 (from tick evasin EVA4) / CCL1 (biotinylated, synthetic) (parent complex)
chain 1: EEDDYTAYAPLTCYFT
chain 2: KSMQVPFSRCCFSFAEQEIPLRAILCYRNTSSICSNEGLIFKLKRGKEACALDTVGWVQRHRKMLRHCPSKRK

Variants of: B1

First: chain 1 L11M
Second: chain 1 L11S
The enrichment of the first is higher: 2.39 log2 (difference from the parental peptide) for the first, -0.148 log2 (difference from the parental peptide) for the second.

Going from chain 1 L11A to chain 1 L11K, the enrichment falls from 0.458 log2 (difference from the parental peptide) to -1.3 log2 (difference from the parental peptide).

Compared with chain 1 L11H, chain 1 L11R is lower in enrichment: 0.897 log2 (difference from the parental peptide) for the first, -0.679 log2 (difference from the parental peptide) for the second.

Compared with chain 1 L11W, chain 1 L11N is lower in enrichment: 0.64 log2 (difference from the parental peptide) for the first, -3.89 log2 (difference from the parental peptide) for the second.

First: chain 1 L11C
Second: chain 1 A7T
The enrichment of the first is higher: 1.6 log2 (difference from the parental peptide) for the first, -0.452 log2 (difference from the parental peptide) for the second.

Compared with chain 1 A7D, chain 1 A7Y is lower in enrichment: 1.19 log2 (difference from the parental peptide) for the first, -0.717 log2 (difference from the parental peptide) for the second.

Going from chain 1 A7I to chain 1 A7Q, the enrichment rises from -0.489 log2 (difference from the parental peptide) to 2.05 log2 (difference from the parental peptide).

Compared with chain 1 A7N, chain 1 A7M is higher in enrichment: -0.0931 log2 (difference from the parental peptide) for the first, 2.23 log2 (difference from the parental peptide) for the second.

Compared with chain 1 A7L, chain 1 C13N is lower in enrichment: 0.189 log2 (difference from the parental peptide) for the first, -8.4 log2 (difference from the parental peptide) for the second.

Going from chain 1 C13T to chain 1 C13Q, the enrichment falls from -9.42 log2 (difference from the parental peptide) to -9.57 log2 (difference from the parental peptide).

Compared with chain 1 C13R, chain 1 C13I is higher in enrichment: -9.16 log2 (difference from the parental peptide) for the first, -5.57 log2 (difference from the parental peptide) for the second.

Going from chain 1 E2N to chain 1 E2K, the enrichment falls from -3.02 log2 (difference from the parental peptide) to -3.34 log2 (difference from the parental peptide).

Compared with chain 1 E2R, chain 1 E2S is higher in enrichment: -3.87 log2 (difference from the parental peptide) for the first, -2.49 log2 (difference from the parental peptide) for the second.

Compared with chain 1 E2V, chain 1 E2D is higher in enrichment: -1.58 log2 (difference from the parental peptide) for the first, -0.0115 log2 (difference from the parental peptide) for the second.

Going from chain 1 D4S to chain 1 D4Q, the enrichment rises from -2.31 log2 (difference from the parental peptide) to -1.98 log2 (difference from the parental peptide).

Compared with chain 1 D4I, chain 1 D4G is lower in enrichment: -2.18 log2 (difference from the parental peptide) for the first, -2.83 log2 (difference from the parental peptide) for the second.

Compared with chain 1 D4V, chain 1 D4P is higher in enrichment: -3.19 log2 (difference from the parental peptide) for the first, -1.34 log2 (difference from the parental peptide) for the second.

Going from chain 1 D4R to chain 1 D4K, the enrichment falls from -2.64 log2 (difference from the parental peptide) to -2.75 log2 (difference from the parental peptide).

Compared with chain 1 T12E, chain 1 T12N is lower in enrichment: -0.867 log2 (difference from the parental peptide) for the first, -1.81 log2 (difference from the parental peptide) for the second.

Going from chain 1 T12L to chain 1 T12C, the enrichment falls from 0.858 log2 (difference from the parental peptide) to -7.25 log2 (difference from the parental peptide).

Compared with chain 1 T12F, chain 1 T12R is lower in enrichment: -0.316 log2 (difference from the parental peptide) for the first, -2.9 log2 (difference from the parental peptide) for the second.

Going from chain 1 T12S to chain 1 T12Y, the enrichment rises from -1.43 log2 (difference from the parental peptide) to 0.868 log2 (difference from the parental peptide).

Going from chain 1 T12A to chain 1 P10N, the enrichment falls from -0.729 log2 (difference from the parental peptide) to -8.22 log2 (difference from the parental peptide).

First: chain 1 P10G
Second: chain 1 P10F
The enrichment of the first is higher: -8.83 log2 (difference from the parental peptide) for the first, -9.61 log2 (difference from the parental peptide) for the second.

Going from chain 1 P10L to chain 1 P10V, the enrichment rises from -9.7 log2 (difference from the parental peptide) to -8.99 log2 (difference from the parental peptide).

Compared with chain 1 P10D, chain 1 F15G is lower in enrichment: -2.21 log2 (difference from the parental peptide) for the first, -4.09 log2 (difference from the parental peptide) for the second.

Going from chain 1 F15P to chain 1 F15Q, the enrichment rises from -0.512 log2 (difference from the parental peptide) to -0.376 log2 (difference from the parental peptide).

First: chain 1 F15C
Second: chain 1 F15A
The enrichment of the first is lower: -5.58 log2 (difference from the parental peptide) for the first, 0.456 log2 (difference from the parental peptide) for the second.

Compared with chain 1 F15L, chain 1 A9F is lower in enrichment: 0.128 log2 (difference from the parental peptide) for the first, -8.36 log2 (difference from the parental peptide) for the second.

Compared with chain 1 A9N, chain 1 A9Q is higher in enrichment: -5.05 log2 (difference from the parental peptide) for the first, -0.732 log2 (difference from the parental peptide) for the second.

Compared with chain 1 A9M, chain 1 A9L is lower in enrichment: -4.18 log2 (difference from the parental peptide) for the first, -7.81 log2 (difference from the parental peptide) for the second.

Going from chain 1 A9C to chain 1 A9I, the enrichment rises from -10.3 log2 (difference from the parental peptide) to -10.2 log2 (difference from the parental peptide).

Going from chain 1 A9K to chain 1 Y5I, the enrichment falls from -2.18 log2 (difference from the parental peptide) to -3.26 log2 (difference from the parental peptide).

Compared with chain 1 Y5Q, chain 1 Y5V is lower in enrichment: -2.39 log2 (difference from the parental peptide) for the first, -3.13 log2 (difference from the parental peptide) for the second.

First: chain 1 Y5N
Second: chain 1 Y5D
The enrichment of the first is lower: -4 log2 (difference from the parental peptide) for the first, -3.92 log2 (difference from the parental peptide) for the second.

First: chain 1 Y5A
Second: chain 1 Y5M
The enrichment of the first is lower: -4.1 log2 (difference from the parental peptide) for the first, -0.412 log2 (difference from the parental peptide) for the second.

Going from chain 1 Y5R to chain 1 Y5L, the enrichment rises from -6.25 log2 (difference from the parental peptide) to -0.851 log2 (difference from the parental peptide).

Compared with chain 1 Y14S, chain 1 Y14E is lower in enrichment: -3.46 log2 (difference from the parental peptide) for the first, -4.21 log2 (difference from the parental peptide) for the second.

Compared with chain 1 Y14C, chain 1 Y14F is higher in enrichment: -8.51 log2 (difference from the parental peptide) for the first, 0.0351 log2 (difference from the parental peptide) for the second.

First: chain 1 Y14V
Second: chain 1 Y14G
The enrichment of the first is higher: -1.51 log2 (difference from the parental peptide) for the first, -8.38 log2 (difference from the parental peptide) for the second.

Compared with chain 1 Y14W, chain 1 Y14M is lower in enrichment: -1.23 log2 (difference from the parental peptide) for the first, -2.78 log2 (difference from the parental peptide) for the second.

Going from chain 1 Y14H to chain 1 Y8V, the enrichment falls from -1.38 log2 (difference from the parental peptide) to -2.87 log2 (difference from the parental peptide).

Compared with chain 1 Y8H, chain 1 Y8D is lower in enrichment: -6.18 log2 (difference from the parental peptide) for the first, -6.74 log2 (difference from the parental peptide) for the second.

Going from chain 1 Y8F to chain 1 Y8S, the enrichment falls from 2.01 log2 (difference from the parental peptide) to -2.05 log2 (difference from the parental peptide).

Going from chain 1 Y8G to chain 1 Y8Q, the enrichment falls from -6.32 log2 (difference from the parental peptide) to -6.56 log2 (difference from the parental peptide).

Compared with chain 1 Y8P, chain 1 D3R is higher in enrichment: -3.81 log2 (difference from the parental peptide) for the first, -3.26 log2 (difference from the parental peptide) for the second.

Compared with chain 1 D3M, chain 1 D3A is higher in enrichment: -1.4 log2 (difference from the parental peptide) for the first, -0.703 log2 (difference from the parental peptide) for the second.

Going from chain 1 D3I to chain 1 D3E, the enrichment rises from -2.12 log2 (difference from the parental peptide) to 0.978 log2 (difference from the parental peptide).

Compared with chain 1 D3G, chain 1 D3W is lower in enrichment: -0.0296 log2 (difference from the parental peptide) for the first, -1.95 log2 (difference from the parental peptide) for the second.

Compared with chain 1 D3L, chain 1 T16K is higher in enrichment: -2.02 log2 (difference from the parental peptide) for the first, -0.439 log2 (difference from the parental peptide) for the second.

Compared with chain 1 T16H, chain 1 T16R is lower in enrichment: -0.148 log2 (difference from the parental peptide) for the first, -1.37 log2 (difference from the parental peptide) for the second.

Compared with chain 1 T16Q, chain 1 T16G is higher in enrichment: 1.05 log2 (difference from the parental peptide) for the first, 1.32 log2 (difference from the parental peptide) for the second.

Going from chain 1 T16N to chain 1 T16F, the enrichment falls from 0.14 log2 (difference from the parental peptide) to -0.482 log2 (difference from the parental peptide).

First: chain 1 T16L
Second: chain 1 T16A
The enrichment of the first is lower: 0.179 log2 (difference from the parental peptide) for the first, 1.23 log2 (difference from the parental peptide) for the second.

First: chain 1 E1P
Second: chain 1 E1I
The enrichment of the first is lower: -2.16 log2 (difference from the parental peptide) for the first, -1.17 log2 (difference from the parental peptide) for the second.

First: chain 1 E1R
Second: chain 1 E1N
The enrichment of the first is lower: -3.04 log2 (difference from the parental peptide) for the first, -0.496 log2 (difference from the parental peptide) for the second.

First: chain 1 E1Y
Second: chain 1 E1K
The enrichment of the first is higher: -1.67 log2 (difference from the parental peptide) for the first, -3.68 log2 (difference from the parental peptide) for the second.

First: chain 1 E1M
Second: chain 1 E1L
The enrichment of the first is higher: -0.0267 log2 (difference from the parental peptide) for the first, -1.91 log2 (difference from the parental peptide) for the second.

First: chain 1 E1A
Second: chain 1 T6I
The enrichment of the first is higher: -0.823 log2 (difference from the parental peptide) for the first, -4.4 log2 (difference from the parental peptide) for the second.

Compared with chain 1 T6V, chain 1 T6F is higher in enrichment: -3.07 log2 (difference from the parental peptide) for the first, -2.21 log2 (difference from the parental peptide) for the second.

Going from chain 1 T6E to chain 1 T6R, the enrichment falls from 2.48 log2 (difference from the parental peptide) to 0.592 log2 (difference from the parental peptide).

First: chain 1 T6A
Second: chain 1 T6W
The enrichment of the first is higher: 1.9 log2 (difference from the parental peptide) for the first, 0.931 log2 (difference from the parental peptide) for the second.

For chain 1 T6S, the enrichment was 2.9 log2 (difference from the parental peptide).

Variants of: B2

First: chain 1 Y8W
Second: chain 1 Y8D
The enrichment of the first is higher: -3.69 log2 (difference from the parental peptide) for the first, -6.77 log2 (difference from the parental peptide) for the second.

Going from chain 1 A7K to chain 1 A7V, the enrichment falls from 2.4 log2 (difference from the parental peptide) to -4.61 log2 (difference from the parental peptide).

Going from chain 1 A7P to chain 1 D3H, the enrichment falls from -0.46 log2 (difference from the parental peptide) to -3.87 log2 (difference from the parental peptide).

First: chain 1 Y5N
Second: chain 1 C13F
The enrichment of the first is higher: -6.94 log2 (difference from the parental peptide) for the first, -7.86 log2 (difference from the parental peptide) for the second.

Compared with chain 1 C13W, chain 1 T12Q is higher in enrichment: -8.88 log2 (difference from the parental peptide) for the first, -2.05 log2 (difference from the parental peptide) for the second.

Going from chain 1 E2P to chain 1 E2R, the enrichment rises from -5.28 log2 (difference from the parental peptide) to -4.77 log2 (difference from the parental peptide).

Going from chain 1 E2W to chain 1 F15I, the enrichment rises from -0.836 log2 (difference from the parental peptide) to 2.23 log2 (difference from the parental peptide).

Compared with chain 1 F15M, chain 1 F15Q is lower in enrichment: 1.5 log2 (difference from the parental peptide) for the first, 0.462 log2 (difference from the parental peptide) for the second.

Compared with chain 1 F15P, chain 1 Y14A is lower in enrichment: -0.0179 log2 (difference from the parental peptide) for the first, -7.68 log2 (difference from the parental peptide) for the second.

Compared with chain 1 Y14H, chain 1 A9T is higher in enrichment: -5.22 log2 (difference from the parental peptide) for the first, -4.64 log2 (difference from the parental peptide) for the second.

Compared with chain 1 A9W, chain 1 A9V is lower in enrichment: -3 log2 (difference from the parental peptide) for the first, -7.56 log2 (difference from the parental peptide) for the second.

First: chain 1 T6K
Second: chain 1 T6R
The enrichment of the first is lower: -3.59 log2 (difference from the parental peptide) for the first, -1.22 log2 (difference from the parental peptide) for the second.

For chain 1 D4E, the enrichment was -2.17 log2 (difference from the parental peptide).
